From publication PMC10900206 come the findings set out here.

For the experiment, the target named is Fhb7. As to the kind of experiment: crystal structure.

The term stoichiometry N denotes the number of molecules, sites or subunits per partner or assembly. Fhb7 (enzyme) displayed a stoichiometry N of 2.
